The record followed here is paper PMC5013273.

In the experiment the target is zona pellucida of in vitro matured (IVM) porcine oocytes (pig (endogenous on porcine oocytes)).

“full-length rabbit OVGP1, recombinant, histidine-tagged (natural protein)”: the ZP digestion time in 0.5% pronase after 1 hr exposure of IVM porcine oocytes to 5, 50 and 125 μg/ml rOVGP1 is 989 min.

B1: truncated porcine OVGP1 lacking region D (regions A and B, 481 aa), recombinant, histidine-tagged (domain or fragment)
chain: HKLVCYFANWAFSRPGPASILPRDLDPFLCTHLVFAFASMNDSQIVAKDARDESIFYPEFNQLKERNEKLKTLLSIGGWNFGTSRFTTMLSTFTNREKFIRSAIGLLRTHGFDGLDLFFLYPGLRGSPRRDRWNFLFLLEELLLAFRREAQLTMRPRLLLSAAVSADPHVIQKAYDVRLLGRLLDFINVLSYDLHGSWEKVTGHNSPLFSLSDDPKSSAYTMNYWRKLGAPPEKLLMGFPTYGRTFRLLKASKNELGAEAVGPASPGKYTKQAGFLAYYEVCSFVQRAKKRWIDHQYVPYAYRGKEWVGYDDDISFSYKAFFIKKEHFGGAMVWTLDLDDVRGTFCGTGPFPLVYMLNDLLLKAEVSSTLSPGFGLSTTVNSSRTCPESLAVTKDLTTDLGILPLGGEAVATETHGRSDNMTVTPGGGLVAPTRPTLSFGKLTVAPEGKTESPGEKAMTP
B1: the ZP digestion time in 0.5% pronase after 1 hr exposure of IVM porcine oocytes to 125 and 250 μg/ml pOVGP1AB stood at 7.75 h.

B2: full-length porcine OVGP1 (oviduct-specific glycoprotein, oviductin), recombinant, histidine-tagged (natural protein)
chain: HKLVCYFANWAFSRPGPASILPRDLDPFLCTHLVFAFASMNDSQIVAKDARDESIFYPEFNQLKERNEKLKTLLSIGGWNFGTSRFTTMLSTFTNREKFIRSAIGLLRTHGFDGLDLFFLYPGLRGSPRRDRWNFLFLLEELLLAFRREAQLTMRPRLLLSAAVSADPHVIQKAYDVRLLGRLLDFINVLSYDLHGSWEKVTGHNSPLFSLSDDPKSSAYTMNYWRKLGAPPEKLLMGFPTYGRTFRLLKASKNELGAEAVGPASPGKYTKQAGFLAYYEVCSFVQRAKKRWIDHQYVPYAYRGKEWVGYDDDISFSYKAFFIKKEHFGGAMVWTLDLDDVRGTFCGTGPFPLVYMLNDLLLKAEVSSTLSPGFGLSTTVNSSRTCPESLAVTKDLTTDLGILPLGGEAVATETHGRSDNMTVTPGGGLVAPTRPTLSFGKLTVAPEGKTESPGEKAMTPVGHPSVTPGDMSVPPVPIQTGDRITPPRRQAVAPEKMTLPSGKRSD
Molecule B2 registered a ZP digestion time in 0.5% pronase after 1 hr exposure of IVM porcine oocytes to 125 and 250 μg/ml pOVGP1 of 102 min.
